B1: BiuH Lys142His (enzyme)
chain: not shown
notes: Biuret hydrolase BiuH, Rhizobium leguminosarum bv. viciae 3841, UniProt Q1M7F4, with Lys142His; also called K142H; source: E. coli BL21 (λDE3), purified (Ni-NTA, SEC)
B2: BiuH Lys142Ala with N-carbamoyl-D,L-aspartic acid (enzyme)
chain: not shown
modifications: acyl (thiocarbamate) covalent complex between the deaminated inhibitor N-carbamoyl-D,L-aspartic acid and Cys175
notes: Biuret hydrolase BiuH, Rhizobium leguminosarum bv. viciae 3841, UniProt Q1M7F4, with Lys142Ala; also called K142A; Lys142Ala variant; source: E. coli BL21 (λDE3), purified (Ni-NTA, SEC)
B3: BiuH wild type (biuret hydrolase from Rhizobium leguminosarum bv. viciae 3841) (enzyme)
chain: not shown
notes: Biuret hydrolase BiuH, Rhizobium leguminosarum bv. viciae 3841; synthetic gene encoding a protein identical to UniProt Q1M7F4; Size exclusion followed Ni-NTA directly in the purification, so the tag was probably still on the protein; also called BiuH WT; biuret amidohydrolase; source: E. coli BL21 (λDE3), purified (Ni-NTA, SEC)
B4: SeMet BiuH wild-type (seleno-L-methionine biuret hydrolase from Rhizobium leguminosarum bv. viciae 3841) (enzyme)
chain: not shown
modifications: selenomethionine in place of methionine
notes: Biuret hydrolase BiuH, Rhizobium leguminosarum bv. viciae 3841; synthetic gene encoding a protein identical to UniProt Q1M7F4; His-tag removed in situ with chymotrypsin, without further purification; also called biuret amidohydrolase; source: E. coli BL21 (λDE3), minimal medium with SeMet, purified (Ni-NTA, SEC); in situ chymotrypsin treatment in the crystallisation drop
B5: BiuH Cys175Ser (enzyme)
chain: not shown
notes: Biuret hydrolase BiuH, Rhizobium leguminosarum bv. viciae 3841, UniProt Q1M7F4, with Cys175Ser; Crystallised without (6AZN) and with biuret (6AZQ); also called C175S; Cys175Ser BiuH variant; source: E. coli BL21 (λDE3), purified (Ni-NTA, SEC)

Legend:
[1] = target: the molecule itself; assay: crystal structure; X-ray structures of BiuH and variants; sitting drops at 20 °C; SeMet SAD, variants by molecular replacement; homotetramer in the asymmetric unit
[2] = target: the molecule itself; assay: SEC; Superdex 200 preparation grade, 130 mL column; 50 mM HEPES pH 7.5, 100 mM NaCl, later 50 mM Tris pH 7.5, 100 mM NaCl; elution compared with sizes expected for monomer, dimer, tetramer and octamer of BiuH

Row | Protein | stoichiometry N [1] | stoichiometry N [2]
1 | B1 | 4 | –
2 | B2 | 4 | –
3 | B3 | – | 4
4 | B4 | 4 | –
5 | B5 | 4 | –

— paper PMC5806882, “Structural and biochemical characterization of the biuret hydrolase (BiuH) from the cyanuric acid catabolism pathway of Rhizobium leguminasorum bv. viciae 3841” (PLoS ONE, 2018)
